Measurements from patent publication US20100280227A1.

What was measured:
Test in all cases: shotgun alanine scan of phage-displayed BR3; F against wild type
[1] = target: human BR3 displayed on phage, R30 alanine-scan mutant (human) (UniProt Q96RJ3)
[2] = target: human BR3 displayed on phage, mutated at A22 in the alanine scan (human) (UniProt Q96RJ3)
[3] = target: human BR3 displayed on phage, G36 alanine-scan mutant (human) (UniProt Q96RJ3)

B1: V3-1m (antibody, mouse IgG2a, V domains shown)
VH: EVQLVESGGGLVQPGGSLRLSCAASGFTISSNSIHWVRQAPGKGLEWVAWITPSDGNTDYADSVKGRFTISADTSKNTAYLQMNSLRAEDTAVYYCARRVCYNRLGVCAGGMDYWGQGTLVTVSS
VL: DIQMTQSPSSLSASVGDRVTITCRASQDVSTAVAWYQQKPGKAPKLLIYSASFLYSGVPSRFSGSGSGTDFTLTISSLQPEDFATYYCQQSRITPPTFGQGTKVEIKR
Q: Which F value [1] does the source give for B1 here?
A: 20

B2: murine monoclonal antibody 11G9 (antibody, V domains shown)
VH: DVQLQESGPSLVKPSQTLSLTCSVTGDSITSGYWNWIRKFPGNKLEYMGYISYSGSTYYNPSLKSRISITRDTSKNQFYLQLLSVTTEDTATYYCAGLDGLYWYFDVWGAGTLVTVSS
VL: DIVMTQTPLSLPVSLGDQASISCRSSQSLVHSNGNTYLHWYLQKPGQSPKLLIYKVSNRFSGVPDRFSGSGSGTDFTLKISRVEAEDLGVYFCSQSTHVPPFTFGSGT
Q: Which F value [2] does the source give for B2 here?
A: 45

B3: murine monoclonal antibody 2.1 (antibody, V domains shown)
VH: EVQLQESGPSLVKPSQTLSLTCSVTGDSITRGYWNWIRKFPGNKLEFMGYINYSGTTYYNPSLKSRISITRDTSKNQYYLQLNSVTTEDTATYYCATPHTYGAMDYWGQGTTLTVSA
VL: DIVLTQSPVSLAVSLGQRATISCRASESVDDYGISFMHWYQQKPGQPPKLLIYRASDLESGIPARFSGSGSGTDFTLTINPVETDDVAIYYCQQTSKDPWTFGGGT
Q: Which F value [3] does the source give for B3 here?
A: 14
